Experimental data reported in patent US20220202899A1, “COMPOSITION FOR PREVENTION OR TREATMENT OF HAIR LOSS INCLUDING HAPLN1” (HAPLNSCIENCE INC., priority 2019, published 2022).

What was measured:
[1] = test system: human hair germinal matrix cells; assay: Cell proliferation of human hair germinal matrix cells, CCK-8 (Example 10); assay type: cell-based; details: HAPLN1 25 ng/mL and/or HA 25 μg/mL; TGF-β2 2 ng/mL, 23 hours
Protocol: Human hair germinal matrix cells were dispensed into a poly-D-lysine 96-well plate at a concentration of 2.0×10^4 per well and cultured for 24 hours. After 24 hours, the medium was removed and replaced with a new serum-free medium. HAPLN1 was treated with 25 ng/mL and HA with 25 μg/mL, incubated for 1 hour, and then stimulated with TGF-β2 (2 ng/mL) for 23 hours. CCK-8 (Enzo Biochem, NY, USA) was treated and incubated at 37° C. for 1 hour.

[2] = test system: human dermal papilla cells; assay: Dermal papilla cell proliferating effect, CCK-8 (Example 13); assay type: cell-based; details: proteins 25 ng/ml, minoxidil 10 μM; TGF-β2 (2 ng/ml) present or absent
Protocol: Human dermal papilla cells were cultured in a 37° C., 5% CO2 incubator using a dermal papilla cell proliferation medium (Promocell). When the cells were about 90% full, the cells were detached with a 0.05% Trypsin/EDTA solution and then centrifuged at 1000 rpm for 3 minutes to recover only the cells. The cells were dispensed into a 96-well plate at 2.0×10^3 per well, cultured for 24 hours, and HAPLN1, CX3CL1 and CDON were diluted to have a final concentration of 25 ng/ml in serum-free medium. After removing the existing culture medium, 200 μl of diluted HAPLN1, CX3CL1, and CDON were dispensed into each well and cultured for 1 hour. To reduce an experimental variation, 3 wells per group were treated (triplication). In addition, minoxidil, which is known to proliferate dermal papilla cells, was treated with 10 μM and set as a positive control.
In the same manner as described above, HAPLN1 (25 ng/ml), CX3CL1 (25 ng/ml), CDON (25 ng/ml) or minoxidil (10 μM), and human recombinant TGF-β2 were diluted to a final concentration of 2 ng/ml, and the medium of the group containing TGF-β2 was replaced by 200 μl. To reduce an experimental variation, 3 wells per group were treated (triplication).
After incubation for 23 hours, the plate was removed from the incubator, and 20 μl of CCK-8 (WST-8) solution was added to the plate containing the medium and the reagent per 200 μl of the medium for the reaction to be carried out at 37° C. for 1 hour.

TβRII [3] = assay: TβRII protein after exogenous HAPLN1 and/or HA in endogenous HAPLN1-deficient human hair germinal matrix cells; assay type: cell-based; details: after HAPLN1 siRNA; HAPLN1 25 ng/mL and/or HA 25 μg/mL; TGF-β2 2 ng/mL, 23 hours
Protocol: The human hair germinal matrix cells were dispensed into a poly-D-lysine 6-well plate at a concentration of 5.0×10^4 per well and cultured for 24 hours. After 24 hours, the medium was removed and replaced with a low-serum medium. HAPLN1 siRNA and scrambled siRNA were added at a concentration of 25 pmol per well and incubated for 24 hours. After the siRNA and the medium were all removed, the medium was replaced with a serum-free medium having HAPLN1 (25 ng/mL) or HA (25 μg/mL) added thereto, and cultured for 1 hour. TGF-β2 (2 ng/mL) was treated and incubated for 23 hours. After collecting cells, a lysis buffer (25 mM Tris-HCl, 1 mM EDTA, 0.1% Triton-X100, phosphatase inhibitor, and protease inhibitor) was added, and all the cells were broken through sonication. TβRII in the sample was measured using Western blotting. The optical density of TβRII was compared to that of GAPDH using a densitometer.

cell membrane TβRII = assay: Cell membrane TβRII protein (biotin labelling, immunoprecipitation, Western blotting); assay type: cell-based, human; details: HAPLN1 25 ng/mL and/or HA 25 μg/mL; TGF-β2 2 ng/mL
Protocol: All proteins present in the cell membrane were labeled with biotin, and immunoprecipitation was performed with a biotin antibody to isolate only the cell membrane protein. In order to confirm changes in the ratio of TβRII among cell membrane proteins, Western blotting was performed. The specific experimental method will now be described.
Human hair germinal matrix cells were dispensed into a poly-D-lysine 100 mm dish at a concentration of 2.7×10^6 and cultured for 24 hours. After 24 hours, the medium was removed and replaced with a new serum-free medium. HAPLN1 was treated with 25 ng/mL and HA with 25 μg/mL, and after 1 hour, TGF-β2 (2 ng/mL) was treated. To label biotin after 23 hours, EZ-Link™ Sulfo-NHS-LC-Biotin (Thermo Fisher Scientific, MA, USA) was treated at a concentration of 250 μg/mL and incubated at 4° C. for 1 hour. The biotin labeling reaction was terminated by treatment with 50 mM Tris-HCl. After collecting cells, a lysis buffer (50 mM Tris-HCl, 150 mM NaCl, 1% NP-40, phosphatase inhibitor, and protease inhibitor) was added, and all the cells were broken through sonication. Cell membrane proteins were isolated by performing immunoprecipitation experiments using anti-biotin antibodies. TβRII in the isolated membrane protein sample was measured using Western blotting. The optical density of TβRII was compared to that of GAPDH using a densitometer.

TβRII [4] = assay: TβRII protein in human hair germinal matrix cells treated with HAPLN1 and/or HA, then TGF-β2 (Western blotting); assay type: cell-based
Protocol: Human hair germinal matrix cells were dispensed into a poly-D-lysine 6-well plate at a concentration of 5.0×10^4 per well and cultured for 24 hours. After 24 hours, the medium was removed and replaced with a new serum-free medium. HAPLN1 was treated with 25 ng/mL, HA was treated with 25 μg/mL, and after 1 hour, TGF-β2 (2 ng/mL) was treated. After 23 hours, cells were collected, a lysis buffer (25 mM Tris-HCl, 1 mM EDTA, 0.1% Triton-X100, phosphatase inhibitor, and protease inhibitor) was added, and all the cells were broken through sonication. TβRI and TβRII in the sample were measured using Western blotting. The optical density of TβRII was compared to that of GAPDH using a densitometer.

TβRII [5] = assay: TβRII protein in human hair germinal matrix cells treated with HAPLN1 by concentration (Western blotting); assay type: cell-based; details: 20 ng/mL of HAPLN1, 24 hours, serum-free medium
Protocol: HAPLN1 was treated on human hair germinal matrix cells by concentration. Specifically, human hair germinal matrix cells (HHGMC) were dispensed into a poly-D-lysine 6-well plate at 5.0×10^4 per well and cultured for 24 hours. After 24 hours, the medium was removed and replaced with a new serum-free medium. HAPLN1 was treated with 0, 5, 10, 20 ng/mL and incubated for 24 hours. After collecting cells, a lysis buffer (25 mM Tris-HCl, 1 mM EDTA, 0.1% Triton-X100, phosphatase inhibitor, and protease inhibitor) was added, and all the cells were broken through sonication. TβRII in the sample was measured using Western blotting. The optical density of TβRII was compared to that of GAPDH using a densitometer (that is, TβRII optical concentration GAPDH optical concentration). Here, GAPDH was used as a loading control.

B1: hyaluronan and proteoglycan link protein 1 (protein, UniProt P10915 16-354, looked up)
Hyaluronan and proteoglycan …: DHLSDNYTLDHDRAIHIQAENGPHLLVEAEQAKVFSHRGGNVTLPCKFYRDPTAFGSGIHKIRIKWTKLTSDYLKEVDVFVSMGYHKKTYGGYQGRVFLKGGSDSDASLVITDLTLEDYGRYKCEVIEGLEDDTVVVALDLQGVVFPYFPRLGRYNLNFHEAQQACLDQDAVIASFDQLYDAWRGGLDWCNAGWLSDGSVQYPITKPREPCGGQNTVPGVRNYGFWDKDKSRYDVFCFTSNFNGRFYYLIHPTKLTYDEAVQACLNDGAQIAKVGQIFAAWKILGYDRCDAGWLADGSVRYPISRPRRRCSPTEAAVRFVGFPDKKHKLYGVYCFRAYN
notes: extracellular matrix protein found in cartilage; stabilizes aggregates of hyaluronic acid and proteoglycans
cell proliferation (absorbance at 450 nm) compared to the control group [1]: promoted
dermal papilla cell proliferation (absorbance at 450 nm) [2]: did not proliferate dermal papilla cells or rather inhibited proliferation thereof
TβRII protein in endogenous HAPLN1-deficient cells (TβRII [3]): recovered
cell membrane TβRII protein concentration (cell membrane TβRII): increased
TβRII protein (optical density compared to GAPDH) (TβRII [4]; HAPLN1 25 ng/mL or HA 25 μg/mL alone, TGF-β2 2 ng/mL after 1 hour, 23 hours): significantly increased
TβRII protein, HAPLN1 treated together with HA (TβRII [4]; HAPLN1 25 ng/mL with HA 25 μg/mL, TGF-β2 2 ng/mL): further enhanced the increase of TβRII by HA
TβRII protein (optical density compared to GAPDH) (TβRII [5]): increased
